# Positions of bridges follow the written chain, without caps; N, C: chain ends. No end group written: not given here.
# Molecular target: recombinant human LRP1 ligand binding cluster II (amino acids 786-1165, C-terminal Fc) (human)
# Assay: solid-phase binding assay, receptor coated on plate
# Chain of recombinant human LRP1 ligand binding cluster II (amino acids 786-1165, C-terminal Fc) (human) (Q07954 786-1165): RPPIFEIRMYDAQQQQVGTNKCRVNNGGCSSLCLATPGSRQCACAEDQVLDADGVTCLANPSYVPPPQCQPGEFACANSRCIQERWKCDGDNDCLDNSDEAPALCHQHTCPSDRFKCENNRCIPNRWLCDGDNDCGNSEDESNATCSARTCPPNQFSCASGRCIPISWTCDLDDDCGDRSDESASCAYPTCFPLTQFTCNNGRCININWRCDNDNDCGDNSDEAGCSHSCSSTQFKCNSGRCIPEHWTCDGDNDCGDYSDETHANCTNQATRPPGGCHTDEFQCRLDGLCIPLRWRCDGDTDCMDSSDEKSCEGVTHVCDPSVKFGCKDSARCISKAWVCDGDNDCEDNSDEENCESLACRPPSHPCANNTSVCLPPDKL
row,Kd,Binder
1,4 to 6 nM,mRAP-8c (disulfide 1-67 (inferred)) peptide: CGKHFEAKIEKHNHYQKQLEIAHEKLRHAESVGDGERVSRSREKHALLEGRTKELGYTVKKHLQDGC
2,3.5 nM,Heptide (disulfide 1-67 (inferred)) peptide: CGKHFEAKIEKHNHYQKQLEIAHEKLRHAESVGDAERVSRSREKHALLEGRTKELGYTVKKHLQDACG
3,21 nM,mRAP-14c (disulfide 1-60) peptide: CEAKIEKHNHYQKQLEIAHEKLRHAESVGDGERVSRSREKHALLEGRTKELGYTVKKHGC

# From patent publication US20100210517A1
